Results on 68 sequences are retold here after the domain aggregation screens of Martell et al. (2025).

This data set in a line: soluble fraction after stress (log2 fold change); higher = more stays soluble; pooled small domains, quantitative proteomics. The following applies: stress: 50 degC. The gist of the method: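 Quantitative proteomics served as the high-throughput read-out for pooled custom libraries of small protein domains. Each was stressed at 50°C. Aggregation propensity is expressed as the base-two log fold change in soluble protein after stress. A higher value means a larger share of the protein remains in solution.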
For the sequence “HMTALSAREHEVLQLITRGYTADEIAAMLQISRHTALTYVRRIYSKLKVNSKAEAIFEVRQR”, the “soluble fraction (log2)” value is -0.577.

On to “HMTANPHKPEPLQIDTSDITPGVTVIHKAFGNGTVVSVDNNRILIDFDGIEKKFPFPGAFLYGFLQK”, for which the “soluble fraction (log2)” value was 0.132.

For “HMTAPDDFIRAEVTASGKNGMAVAELSKRVRTRFKSFKVRELGYPHLAGYLADVEGVRVYKQGRENWVAK”, the “soluble fraction (log2)” value is -0.905.

“HMTAQASDIEKVLQVIETLGFRGHTLPGENRTAIGVTGNRGSIDPAHFENLPGVADAIRVTKPY”: the “soluble fraction (log2)” value came to 0.0639.

Turning to “HMTARPTLEKLKYMIHEAGITENSLKVIVATKGHYGLDADISTYSDDFITRWIIPNWTKIVQTISNNK”, the “soluble fraction (log2)” value is -0.348.

As to “HMTASSYMGMQLGRLEELLKKEVLSLSEKTELKDLISDFDKIPEVVSPKIIGRYLQLKNQHFAKINA”, the “soluble fraction (log2)” value was -0.0763.

On to “HMTAVVPNFKGKLISELSNFVADKNVRYTIIDSIYDPEEKSGIVIKQDPEEKTQVKHNRIIYLYVTST”, for which the “soluble fraction (log2)” value was -1.53.

Consider “HMTDDFAGRFNELLIHNQETAVTAATRLEVSPAVITKWRQGKSIPSGEYIKRIVETYHVSADYLLGVIDTP”, for which the “soluble fraction (log2)” value is -0.445.

On to “HMTDEEFSRIVKYTAVRYGINLYHKKVMVEGRLSNYLAANGFKSYTEYMDRVEADYTGQEAQNLINILTT”, for which the “soluble fraction (log2)” value is -0.258.

Consider “HMTDFDPDGREKLIKVQKALHFNNHQLADALRVGQATFSSYIYGRVAAGVPVRVVKAAEDLLKNSKATV”, for which the “soluble fraction (log2)” value is -0.303.

On to “HMTDFDWSLFTQQLKRFNLFLSYDDREKLQTFQTLYGLNELDLAEYVAKASAGEKNGLNFNYLRQLINKEK”, for which the “soluble fraction (log2)” value is -0.465.

For the sequence “HMTDFNTFSDAIIAAVGSRASGLKVVDNAVSVMVDVSGLNEDQRVEIEADVRAAAEHAGAQSVRIMLT”, the “soluble fraction (log2)” value was -0.438.

For “HMTDLALHIGKTLRELRQRRGWSLDKTAQATGVSKAMLGQIERGESSPTVVTLWRISSGLQASFSEFLPP”, the “soluble fraction (log2)” value was -1.61.

For “HMTDLDVAVTMTVALEEAVNGATRRVRLPNGKELNVKIPAGVAAGQQIRLKGQGETAPGHRPGDVLITVNI”, the “soluble fraction (log2)” value is -0.262.

As for “HMTDLQNDIQAFNLKKMSYQHETKKLEEKRNPEKLEKLEQDIQALYLRIMENPNMRAFDSAKQALYLQIM”, the “soluble fraction (log2)” value was -0.773.

Consider “HMTDLVVGLAGITLEPLRPAGKAEFNGSVVDVVSLGDYIEKSTAIQIVEIEGNRIVVHHGED”, for which the “soluble fraction (log2)” value is -0.0705.

In the case of “HMTDQYEVQNLVGLTVREAQEKEGVKDIFEVREVGSEFSAEYDAGLIVRQSPDAGEQRKGEGLVIEVWVSA”, the “soluble fraction (log2)” value came out at 0.0425.

Regarding “HMTDSLELADLLRRAIITGEYKPRERLVEMELAQKYSVSRTPVREALKHLEALGLVKMERYKGAMVAD”, the “soluble fraction (log2)” value was -0.46.

In the case of “HMTDSQLVEAENHVALRQAMAHLGPRERELIGLYYFEEQSQTQIAARFGVSQMQVSRWLTSAVGRIRGQMA”, the “soluble fraction (log2)” value was -0.00256.

Regarding “HMTDWNTVEKETLSAIQKVLSGQASWIDLSPADHSIRHMQHEMVQQAGLISQSYGKEPMRRIRIYQNP”, the “soluble fraction (log2)” value was found to be 0.117.

For “HMTEDADIERRLTGILASAGWYRSLAVEVKEGIVYLDGATASGNHRDWAGSLAAKTEGVVAVVNRIEVQP”, the “soluble fraction (log2)” value is -0.238.

Regarding “HMTEDIAVRILEFLEDNNGFYALNDKTPSEKIHDLFGVSKKKFKIALGGLYKQRLITVSDAGVTLVK”, the “soluble fraction (log2)” value was -1.29.

As for “HMTEDTPIIVERVVADIDENVVAIVRKFKDAFKSITAQREIKKKLRSILWVNYQIKDQEVFDKAYQYIEMY”, the “soluble fraction (log2)” value is 0.0204.

Consider “HMTEEDVVIFSGLSDRDLKMVQTELANSGIKYTLPTSGTVSVPNSEIARAQMVLAMAGIPRS”, for which the “soluble fraction (log2)” value stood at 0.167.

As for “HMTEEVIIQNYIGKNFNDVRDELEAKGITVDEPNMKYSDEFKENTIMAQSIKPGQPLKPGGFNSIKFDVS”, the “soluble fraction (log2)” value was determined as 0.211.

Consider “HMTEFFNMQDMFYFKLTGDVTSKERRQSLGKILGIGYGNAAQMVSRLNNYGITKEEFTNAINEIEKQMEAG”, for which the “soluble fraction (log2)” value was -0.775.

As to “HMTEISGIEKFLASGAINGIGPAMAKKIVAEFGEKTLEIIAKSPNELLKVPGIGKKTAEKISTSYLEQ”, the “soluble fraction (log2)” value is -0.0669.

Regarding “HMTEKEEERTEDLNYYRLNLISMLKSSYPEYLDDEEFISNRSQEAAEAFEDAVRSGSNYLDASAESNRTLY”, the “soluble fraction (log2)” value was -0.362.

For “HMTEKIRLTVDEAGKNQRVDKYISTLLTQFSRSSIKTWIETGNILLDNTRTKPRTLLSPGQVIDIQPRFED”, the “soluble fraction (log2)” value was -0.643.

Take “HMTEKIVFNIDGQTGRIDKILADFMTGTSRSQIQAWVKDGNLMVNDKAVKSNYKVQDGDLLELTIPEPEQ”: the “soluble fraction (log2)” value was -0.171.

For “HMTELIEDYVELIGDLIRHRGEARAADIANRMAVSQATVSKMIRRLNELGLVTSKPYRSLFLTDEGQKMAE”, the “soluble fraction (log2)” value is -0.474.

Take “HMTELLTPKQRQVFELALREGYYDVPRRTSITEMARLLGVAKSTLSAQMHRMEATVMSTFAEEIRKQ”: the “soluble fraction (log2)” value is -1.74.

Turning to “HMTENIPPVKIEEMRQKWQDIVLLHGVTSGRKIKSGQATYIWLYRNDQNWLLTFNSRHLSQPQV”, the “soluble fraction (log2)” value came to 0.145.

With “HMTEPKILTAEESQRLDLILVQQWPELGRRALRELVQQGGVRINGELALKAGQYVQAGERVEVAVP”, the “soluble fraction (log2)” value was 0.0571.

On to “HMTEQKNNEQQNAVNEKKQALKQLMEKGKEKGSLSYNEVNALLDKLEFTEDQKAIVYDQLHSEDIELQ”, for which the “soluble fraction (log2)” value came to 0.193.

Regarding “HMTEQLTLVGKTGVTTTDLRPSGKVEVDGKRYDAVADNGAFISKGAHIKVVRYVTGQVYVVPTD”, the “soluble fraction (log2)” value was found to be 0.0883.

For “HMTERIRLHDDIGSWVEKHGATRSALIPVLQGIQRSYNEISEYAMQEVADRLDIHPVEVYSVVSFYSF”, the “soluble fraction (log2)” value was -0.0419.

As to “HMTESFEFTMNDLVQNNLIMGSGAKERRIAVGEALGIGYTNAKQFLSRLNHYGITRKEFDDEIEKVNQN”, the “soluble fraction (log2)” value is -0.158.

Turning to “HMTETEIVIGGKYRHYKGGEYELVSIVKHSETLEELVIYKSLSTGEMWARPKSLFVGLVDGQPRYTL”, the “soluble fraction (log2)” value is -1.85.

“HMTETIPVSERLFRYLFEEKGKRVQKIQQTSHARVRMERSPYSVVVSGTKDAVEAAMESLKATEKELLEA”: the “soluble fraction (log2)” value was determined as 0.15.

Take “HMTETPDDLLAALKKNKKAQATFDAFSPSNKKEYILWITEAKTEATRTKRLETAIEWMSEGKARNW”: the “soluble fraction (log2)” value is -0.222.

On to “HMTETTTVPKLKGLTKDEAEDAAKSSKIKLEFIDEISKTVEAGVIIKQEKDEGETVNAGDTVKVYVSIGT”, for which the “soluble fraction (log2)” value came to 0.218.

As for “HMTEWSIHEVAQRSGVTTRTLRHYDAIGILSPTRTGANGYRYYGPEALVRLQRILLLRDLGLALSDIAE”, the “soluble fraction (log2)” value was -4.61.

Turning to “HMTEYFTIESQEGERIDRYLSEELEDKSRSYIQKLIRDGHVLVDGKTVKAGYRLVAGDNIAITLPEI”, the “soluble fraction (log2)” value is -0.0879.

For the sequence “HMTFAPTAIPSLTRPMEELMSWSFTPNEAFILSRINGLWDVRSIAKISPFPEGEVLRVFEKLHDGGLIRW”, the “soluble fraction (log2)” value was -2.92.

“HMTFNEPSPKEIMDYSLSRGYKVDADAFIDFYRGKAKAYGKEGLWLDGRGRLVKDWRAKLRVVWFKDENKL”: the “soluble fraction (log2)” value was -1.22.

On to “HMTGDIGAEAAKAAALAHAGVTESQTAKMKVDRDWDDGRLEYDVEFDVGRTEYEYTIDGVTGAVLEYEQDI”, for which the “soluble fraction (log2)” value was determined as 0.0136.

As to “HMTGDIIKQERKKKNLTQIELAKKVGISRNALINYEAGTRIPPISVQLKLADVLGIDILDLK”, the “soluble fraction (log2)” value was -0.299.

Regarding “HMTGDISRALDQLPADMRTVLILYALEKQRYEDIAQITGVSVGTVKSRLNRARQKLAAILANQREQNE”, the “soluble fraction (log2)” value was -0.488.

As for “HMTGDNQTIGGGGFHHVAIRAHDFDASVKFYGETLGFREKIAWGEGDKRAIMMDTGDGNYIEIF”, the “soluble fraction (log2)” value was found to be 0.197.

On to “HMTGEDIKKVILREYAREKSLLSIFHELSKVNSNVTLEVIKDIITNIDKLPNDLLQYFKEESSFYQKNKN”, for which the “soluble fraction (log2)” value is -0.397.

Consider “HMTGGIWVQIQGAVERPGVYSLPRDSRLKDLLEAAGGFGRDADTEKVNQAARLEDGAMYRVPRQGEG”, for which the “soluble fraction (log2)” value amounted to 0.352.

For the sequence “HMTGGLLVHVAGAVGAPGVVSLPEGARVVDAIEAAGGAREDADTDQLNLARPVVDGEQVRVPVVGEVLE”, the “soluble fraction (log2)” value was -0.0748.

For “HMTGINMSYEEYKAMADIIVPLIKAGHSPYHIVTNHPELNISEKTLYNYIENGIFREFGLLDINL”, the “soluble fraction (log2)” value is -0.313.

With “HMTGIRVYPNPTSSELRFSVATDAALYDATGARLRVVRGSDMMDIRDLASGTYYVRFADGSTQSVVVT”, the “soluble fraction (log2)” value was -0.198.

For the sequence “HMTGKLGKIILQPKQTVYGITKKYQISESELRRLNPQLDSHLKIGDEVILPAENIKKFGGNQPVAVS”, the “soluble fraction (log2)” value amounted to 0.311.

On to “HMTGKTTLEYLNPLLERGIPVWDYLAKASGKAKEEVQEMVSKGLVPGAEAAKAIADYMGAEFAGSMA”, for which the “soluble fraction (log2)” value is 0.0316.

In the case of “HMTGKVKWYDADKGFGFVTEDGGRDVYVRKSALPQGVETLKAGQRLEFGIAEGRRGPQALSVR”, the “soluble fraction (log2)” value was found to be 0.0817.

As to “HMTGLFSPTEQTRHSKTGATLYSVKLAERIERNAFQSLKKRAKEHDGYYSSFTRSFLFDTPEDAEAFRGT”, the “soluble fraction (log2)” value was -0.27.

On to “HMTGMEASLSKLLQGEQFADLRKALIDKGIRKLEAFKRLNLWVFMNRNRLYSIGQRQTVYSTLQRALASE”, for which the “soluble fraction (log2)” value stood at 0.0329.

As to “HMTGREIDQLFSVVNDLKAKGVGMVFISHHLDEIARIADSVSVLRDGGFVAEVPASTPEKKLVTLMVGRDI”, the “soluble fraction (log2)” value was -0.208.

On to “HMTGWINVDKNWYYMNNSGSMARGMINVNNVSYYLDENGKMLSNTTVNVNGTDYRIDASGAMSQI”, for which the “soluble fraction (log2)” value is -0.564.

Turning to “HMTHEIKIKSHSLFASEGTKYQWYLNNIKINDATSQELEITSPGIYKLEMTNFDGDVIEKQIIVGLTNS”, the “soluble fraction (log2)” value was -2.94.

In the case of “HMTHHGHSIKRIRDMLGIKQETLAAELNMTQQAFSKLEQKEQIEDEMLDKIAKILHVSTEALKT”, the “soluble fraction (log2)” value is -0.00336.

On to “HMTHPAHLARIGALIRSARQHEGLTQAQLAELLGTSQSAIHRIEQGGQNITLDMLTRISAALDSEIVTIG”, for which the “soluble fraction (log2)” value is -0.921.

In the case of “HMTHPQVEAYLDDLARMLADIDPGERDDILASVREHLDAEIAAGHGSDAVVNATLLRLGPPEQVAAAARTN”, the “soluble fraction (log2)” value is -0.0824.

“HMTIAFPSNDVDAVVGYFESRGFDRTASISTATVILQQAKIDGVKVFELIDTLQGMDKVQLSYIVTEILN”: the “soluble fraction (log2)” value worked out at 0.03.

As to “HMTIATLGERIRKLRKERGLTLAELAGDKLSKGMLSLIENNRAKPSMESLEYIAKRLGVEPAELLE”, the “soluble fraction (log2)” value stood at 0.176.
